Entries after “also recorded” stand apart in the source; their conditions may differ.
Experiments:
[1] = tested on: FSHD cultured myoblasts; assay: Dominant negative inhibition of DUX4-fl by lenti-DUX4-s in FSHD muscle cells; assay type: cell-based, human; details: lentiviral expression in FSHD muscle cells, 48 hours of differentiation
Experimental: Simultaneously, cells were transduced by lentivirus carrying DUX4-s or GFP along with 8 μg/mL polybrene. Cells were washed and changed to plain differentiation media after 24 hours. Cells were harvested for RNA after 48 hours of differentiation. Untransduced cells were used to assess baseline expression of DUX4-fl target genes.

[2] = tested on: Cultured control human myoblasts; assay: Beta-defensin 3 and innate immune response, real-time qPCR of IFIH1, ISG20, DEFB103; assay type: cell-based; details: RT-qPCR, similar titers, FIG. 7A
Experimental: Cultured control human myoblasts were grown to 80% confluence and infected with equivalent titers of lenti-GFP, lenti-DUX4-s and lenti-DUX4-fl in growth media supplemented with 8 μg/mL polybrene. Expression of innate immune responsive genes including IFIH1 (MDA5), ISG20 and DEFB103 were assessed by real-time qPCR as previously described at 24 hours (primer sequences below). For conditioned media, cells were infected with lenti-DUX4-fl for 12 hours, thoroughly washed 3 times with PBS and switched to fresh growth media to condition for 12 hours. Control conditioned media was produced from cells not infected with any lentivirus. Myoblasts were infected with lenti-GFP in either control conditioned media, lenti-DUX4-fl conditioned media or regular growth media supplemented with 1 μM human β-defensin 3 (Peptides International, Louisville, Ky.). Expression of innate immune responsive genes were examined after 24 hours.

[3] = tested on: Human myoblasts; assay: Expression array of the innate immune response to lentiviral infection versus uninfected cells; assay type: cell-based
Experimental: RNA was harvested from the lenti-viral infected cells and uninfected control cells at 24 hours after infection.

B1: DUX4-s: short splice form of DUX4 (SEQ ID NO:112), keeps the double-homeobox domains, lacks the C-terminal activation domain (protein, listed as Homo sapiens)
chain: MALPTPSDSTLPAEARGRGRRRRLVWTPSQSEALRACFERNPYPGIATRERLAQAIGIPEPRVQIWFQNERSRQLRQHRRESRPWPGRRGPPEGRRKRTAVTGSQTALLLRAFEKDRFPGIAAREELARETGLPESRIQIWFQNRRARHPGQGGRAPAQV
**Q.** Which “endogenous expression of DUX4 target genes (PRAMEF1, RFPL2, MBD3L2)” value [1] does the source give for B1 here?
**A.** inhibited the endogenous expression of the target genes; also recorded: blocks expression of these three DUX4-fl target genes

**Q.** What about the “induction of the innate immune response in myoblasts” value [2] of the same molecule?
**A.** induced the innate immune response

**Q.** What about the “DEFB103A and DEFB103B transcripts” value ([3]; expression array) of the same molecule?
**A.** not

**Q.** What about the “CCL2 expression ratio vs GFP (.fc)” value ([3]; gene CCL2 NM_002982.3, vs lenti-GFP, 24 hours after infection) of the same molecule?
**A.** 0.44 log2 fold change

**Q.** And the “CCL2 expression ratio vs NoLenti (.fc)” value ([3]; gene CCL2 NM_002982.3, vs uninfected, 24 hours after infection)?
**A.** 2.82 log2 fold change

**Q.** What about the “CCL5 expression ratio vs GFP (.fc)” value ([3]; gene CCL5 NM_002985.2, vs lenti-GFP, 24 hours after infection) of the same molecule?
**A.** 1.89 log2 fold change

**Q.** And the “CCL5 expression ratio vs NoLenti (.fc)” value ([3]; gene CCL5 NM_002985.2, vs uninfected, 24 hours after infection)?
**A.** 4.33 log2 fold change

**Q.** What about the “CXCL1 expression ratio vs GFP (.fc)” value ([3]; gene CXCL1 NM_001511.1, vs lenti-GFP, 24 hours after infection) of the same molecule?
**A.** 0.20 log2 fold change

**Q.** And the “CXCL1 expression ratio vs NoLenti (.fc)” value ([3]; gene CXCL1 NM_001511.1, vs uninfected, 24 hours after infection)?
**A.** 3.36 log2 fold change

**Q.** What about the “CXCL2 expression ratio vs GFP (.fc)” value ([3]; gene CXCL2 NM_002089.3, vs lenti-GFP, 24 hours after infection) of the same molecule?
**A.** 0.00 log2 fold change

**Q.** What about the “CXCL2 expression ratio vs NoLenti (.fc)” value ([3]; gene CXCL2 NM_002089.3, vs uninfected, 24 hours after infection) of the same molecule?
**A.** 1.09 log2 fold change

**Q.** What about the “CXCL5 expression ratio vs GFP (.fc)” value ([3]; gene CXCL5 NM_002994.3, vs lenti-GFP, 24 hours after infection) of the same molecule?
**A.** 0.82 log2 fold change

**Q.** What about the “CXCL5 expression ratio vs NoLenti (.fc)” value ([3]; gene CXCL5 NM_002994.3, vs uninfected, 24 hours after infection) of the same molecule?
**A.** 2.60 log2 fold change

**Q.** And the “CXCL6 expression ratio vs GFP (.fc)” value ([3]; gene CXCL6 NM_002993.2, vs lenti-GFP, 24 hours after infection)?
**A.** 0.17 log2 fold change

**Q.** What about the “CXCL6 expression ratio vs NoLenti (.fc)” value ([3]; gene CXCL6 NM_002993.2, vs uninfected, 24 hours after infection) of the same molecule?
**A.** 1.77 log2 fold change

**Q.** What about the “DDX58 expression ratio vs GFP (.fc)” value ([3]; gene DDX58 NM_014314.3, vs lenti-GFP, 24 hours after infection) of the same molecule?
**A.** 0.02 log2 fold change

**Q.** And the “DDX58 expression ratio vs NoLenti (.fc)” value ([3]; gene DDX58 NM_014314.3, vs uninfected, 24 hours after infection)?
**A.** 2.14 log2 fold change

**Q.** And the “DHX58 (LGP2) expression ratio vs GFP (.fc)” value ([3]; gene DHX58 NM_024119.2, vs lenti-GFP, 24 hours after infection)?
**A.** 0.70 log2 fold change

**Q.** And the “DHX58 (LGP2) expression ratio vs NoLenti (.fc)” value ([3]; gene DHX58 NM_024119.2, vs uninfected, 24 hours after infection)?
**A.** 3.04 log2 fold change

**Q.** What about the “IFI6 expression ratio vs GFP (.fc)” value ([3]; gene IFI6 NM_022872.2, vs lenti-GFP, 24 hours after infection) of the same molecule?
**A.** −0.04 log2 fold change

**Q.** And the “IFI6 expression ratio vs NoLenti (.fc)” value ([3]; gene IFI6 NM_022872.2, vs uninfected, 24 hours after infection)?
**A.** 5.05 log2 fold change

**Q.** And the “IFI16 expression ratio vs GFP (.fc)” value ([3]; gene IFI16 NM_005531.1, vs lenti-GFP, 24 hours after infection)?
**A.** 0.68 log2 fold change

**Q.** What about the “IFI16 expression ratio vs NoLenti (.fc)” value ([3]; gene IFI16 NM_005531.1, vs uninfected, 24 hours after infection) of the same molecule?
**A.** 2.52 log2 fold change

**Q.** What about the “IFI27 expression ratio vs GFP (.fc)” value ([3]; gene IFI27 NM_005532.3, vs lenti-GFP, 24 hours after infection) of the same molecule?
**A.** 0.27 log2 fold change

**Q.** And the “IFI27 expression ratio vs NoLenti (.fc)” value ([3]; gene IFI27 NM_005532.3, vs uninfected, 24 hours after infection)?
**A.** 7.60 log2 fold change

**Q.** What about the “IFI35 expression ratio vs GFP (.fc)” value ([3]; gene IFI35 NM_005533.2, vs lenti-GFP, 24 hours after infection) of the same molecule?
**A.** 0.92 log2 fold change

**Q.** What about the “IFI35 expression ratio vs NoLenti (.fc)” value ([3]; gene IFI35 NM_005533.2, vs uninfected, 24 hours after infection) of the same molecule?
**A.** 4.33 log2 fold change

**Q.** And the “IFI44L expression ratio vs GFP (.fc)” value ([3]; gene IFI44L NM_006820.1, vs lenti-GFP, 24 hours after infection)?
**A.** 0.47 log2 fold change

**Q.** What about the “IFI44L expression ratio vs NoLenti (.fc)” value ([3]; gene IFI44L NM_006820.1, vs uninfected, 24 hours after infection) of the same molecule?
**A.** 6.22 log2 fold change

**Q.** What about the “IFI44 expression ratio vs GFP (.fc)” value ([3]; gene IFI44 NM_006417.3, vs lenti-GFP, 24 hours after infection) of the same molecule?
**A.** 0.29 log2 fold change

**Q.** And the “IFI44 expression ratio vs NoLenti (.fc)” value ([3]; gene IFI44 NM_006417.3, vs uninfected, 24 hours after infection)?
**A.** 3.59 log2 fold change

**Q.** And the “IFIH1 (MDA5) expression ratio vs GFP (.fc)” value ([3]; gene IFIH1 NM_022168.2, vs lenti-GFP, 24 hours after infection)?
**A.** 1.66 log2 fold change

**Q.** What about the “IFIH1 (MDA5) expression ratio vs NoLenti (.fc)” value ([3]; gene IFIH1 NM_022168.2, vs uninfected, 24 hours after infection) of the same molecule?
**A.** 5.34 log2 fold change

**Q.** What about the “IFIT1 expression ratio vs GFP (.fc)” value ([3]; gene IFIT1 NM_001548.3, vs lenti-GFP, 24 hours after infection) of the same molecule?
**A.** 0.72 log2 fold change

**Q.** And the “IFIT1 expression ratio vs NoLenti (.fc)” value ([3]; gene IFIT1 NM_001548.3, vs uninfected, 24 hours after infection)?
**A.** 5.50 log2 fold change

**Q.** And the “IFIT3 expression ratio vs GFP (.fc)” value ([3]; gene IFIT3 NM_001549.2, vs lenti-GFP, 24 hours after infection)?
**A.** 1.81 log2 fold change

**Q.** And the “IFIT3 expression ratio vs NoLenti (.fc)” value ([3]; gene IFIT3 NM_001549.2, vs uninfected, 24 hours after infection)?
**A.** 5.49 log2 fold change

**Q.** What about the “IFIT5 expression ratio vs GFP (.fc)” value ([3]; gene IFIT5 NM_012420.1, vs lenti-GFP, 24 hours after infection) of the same molecule?
**A.** −0.28 log2 fold change

**Q.** What about the “IFIT5 expression ratio vs NoLenti (.fc)” value ([3]; gene IFIT5 NM_012420.1, vs uninfected, 24 hours after infection) of the same molecule?
**A.** 0.81 log2 fold change

**Q.** And the “IFITM1 expression ratio vs GFP (.fc)” value ([3]; gene IFITM1 NM_003641.3, vs lenti-GFP, 24 hours after infection)?
**A.** 0.34 log2 fold change

**Q.** And the “IFITM1 expression ratio vs NoLenti (.fc)” value ([3]; gene IFITM1 NM_003641.3, vs uninfected, 24 hours after infection)?
**A.** 7.08 log2 fold change

**Q.** And the “IFITM2 expression ratio vs GFP (.fc)” value ([3]; gene IFITM2 NM_006435.2, vs lenti-GFP, 24 hours after infection)?
**A.** 0.01 log2 fold change

**Q.** And the “IFITM2 expression ratio vs NoLenti (.fc)” value ([3]; gene IFITM2 NM_006435.2, vs uninfected, 24 hours after infection)?
**A.** 1.29 log2 fold change

**Q.** And the “IFITM3 expression ratio vs GFP (.fc)” value ([3]; gene IFITM3 NM_021034.2, vs lenti-GFP, 24 hours after infection)?
**A.** −0.13 log2 fold change

**Q.** And the “IFITM3 expression ratio vs NoLenti (.fc)” value ([3]; gene IFITM3 NM_021034.2, vs uninfected, 24 hours after infection)?
**A.** 1.84 log2 fold change

**Q.** What about the “IL1R1 expression ratio vs GFP (.fc)” value ([3]; gene IL1R1 NM_000877.2, vs lenti-GFP, 24 hours after infection) of the same molecule?
**A.** 0.30 log2 fold change
